Experimental data taken from patent US20190248907A1 (published 2019).

Columns and labels:
bp.CS06xB10v5 = assay: -; apparent KD
o.a. B10v5 = assay: -; apparent KD

Kd (bp.CS06xB10v5): 0.0196 nM
Kd (o.a. B10v5): 0.417 nM
B1: hu c-Met (receptor)
chain: ECKEALAKSEMNVNMKYQLPNFTAETPIQNVILHEHHIFLGATNYIYVLNEEDLQKVAEYKTGPVLEHPDCFPCQDCSSKANLSGGVWKDNINMALVVDTYYDDQLISCGSVNRGTCQRHVFPHNHTADIQSEVHCIFSPQIEEPSQCPDCVVSALGAKVLSSVKDRFINFFVGNTINSSYFPDHPLHSISVRRLKETKDGFMFLTDQSYIDVLPEFRDSYPIKYVHAFESNNFIYFLTVQRETLDAQTFHTRIIRFCSINSGLHSYMEMPLECILTEKRKKRSTKKEVFNILQAAYVSKPGAQLARQIGASLNDDILFGVFAQSKPDSAEPMDRSAMCAFPIKYVNDFFNKIVNKNNVRCLQHFYGPNHEHCFNRTLLRNSSGCEARRDEYRTEFTTALQRVDLFMGQFSEVLLTSISTFIKGDLTIANLGTSEGRFMQVVVSRSGPSTPHVNFLLDSHPVSPEVIVEHTLNQNGYTLVITGKKITKIPLNGLGCRHFQSCSQCLSAPPFVQCGWCHDKCVRSEECLSGTWTQQICLPAIYKVFPNSAPLEGGTRLTICGWDFGFRRNNKFDLKKTRVLLGNESCTLTLSESTMNTLKCTVGPAMNKHFNMSIIISNGHGTTQYSTFSYVDPVITSISPKYGPMAGGTLLTLTGNYLNSGNSRHISIGGKTCTLKSVSNSILECYTPAQTISTEFAVKLKIDLANRETSIFSYREDPIVYEIHPTKSFISGGSTITGVGKNLNSVSVPRMVINVHEAGRNFTVACQHRSNSEIICCTTPSLQQLNLQLPLKTKAFFMLDGILSKYFDLIYVHNPVFKPFEKPVMISMGNENVLEIKGNDIDPEAVKGEVLKVGNKSCENIHLHSEAVLCTVPNDLLKLNSELNIEWKQAISSTVLGKVIVQPDQNFT
